Measured values from the nanobody polyreactivity screen of Harvey et al. (2022).

Assay: yeast display, Sf9 membrane polyspecificity reagent, FACS + sequencing; frameworks hold sequencing errors
How it was run: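 Nanobodies came from a synthetic yeast display library in Saccharomyces cerevisiae BJ5465, induced with galactose for 36–48 hours and stained for 1 hour at 4 °C with 10% biotinylated, detergent-solubilized Sf9 membrane reagent. Cells were enriched on streptavidin microbeads and then FACS-sorted, with low and high (top ~1%) gates set on anti-HA fluorescence for expression and streptavidin fluorescence for reagent binding. Each polyreactivity label reflects the gate a clone came from. Genes were amplified by colony PCR, sequenced by MiSeq 2 × 250 and filtered by CDR length.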

Sequence | polyreactivity (PSR sort gate)
QVQLVESGGGLVHAGGSLRLSCDASGIIFFIYTMGWYRQAPGKERELVAVITRGGRTNYADSVKGRFTISRDNAKNTVYLQMNSLKPEDTAVYYCAAKGSRSYYWGQGTQVNVSS | high polyreactivity
QVQLVESGGGLVHAGGSLRLSCDASGITFGPYGMGWYRQAHGKEREFVATITTIGGITYYADSVKGRFTISRDNAKNTFYLQMNSLKPEDTAVYYCAAPWFHGYDALVDYWGQGTQVTVSS | low polyreactivity
QVQLVESGGGLVHAGGTLRLSCAASGGIFYHYTMGWYRQAPGKERELVASIRVSGGRTYNADSVTGRFTISRDNAKNTVYLQMNSLKPQDSAVYFCNARGSWYQPTYDYWGQGTQVTVSS | high polyreactivity
QVQLVESGGGLVHEGGSLRLSFAASGPTFYRYTMGWYRQAPGKERELVATITGGGSTNYADSVKGRFTISRDNAKNTVYLQMNSLKPEDTAVYYCARAVVQSRGPPRYKTPYDYWGQGTQVTVSS | low polyreactivity
QVQLVESGGGLVKAGGILRLICVASGRTFLRYGMGWYRQAPGKERELVAAISIVGNTYYADSVKGRFTISRDNAKNTVYLQMNSLKPEDTAVYYCAAGRRFGRDYWGQGTQVTVSS | high polyreactivity
QVQLVESGGGLVKAGGILRLSCAASGSTFWKYAMGWYRQAPGKERELVAAINSGGSTYYADSVKGRFTISRDNAKNTVYLQMNSLKPEDTAVYYCAAVYVDRRKRSYYWGQGTQVTVSS | high polyreactivity
QVQLVESGGGLVKAGGRLRLSSAASGSIFASYSIGWYRQAPWKERELVAAITVRGGRTYYADSVKGRFTISRDNAKNTVYLQMNSLKPEDTAVYYCAAVGKNRSWYDYWGQGTQVTVSS | high polyreactivity
QVQLVESGGGLVKAGGSLRFSCAASGSIFHPYELGWKTQAPRKESDLVAGISRSGTSTYYADSVKGRFTISRDNAKNTVYLQMNSLKPEDTAVYYCYKVLVGSNRGEYDYWGQGTQVTVSS | low polyreactivity
QVQLVESGGGLVKAGGSLRLSCAASGFIFKRNVMGWYRQAPGKETELVARISSRGGSTYYADSVKGRFTISRDNAKNTVYLQMNSLKPEDTEVYYCAADFGTIRVYSGDYWGQGTQVTVSS | high polyreactivity
QVQLVESGGGLVKAGGSLRLSCAASGFIFTQNAMGWYRQAPGKERELVAAISGTGGSTYYADSVKGRFTISRDNAKNTVYLQMNSLKPEDTAVYYCAARRRQEHVGRSSYARYDYWGQGTQVTVSS | high polyreactivity
QVQLVESGGGLVKAGGSLRLSCAASGFISSSYAMGWYRQAPGKERELVAVITRSGGSTYYADSVKGRFTISRDNAKNTVYLQMNSLKPEDTGVYYCNTDARSKKYIFDFDYWGQGTQVTVSS | high polyreactivity
QVQLVESGGGLVKAGGSLRLSCAASGFTIVYYAMGWYIQAPGKERELVAAISATGGRTYYADSVKGRFTISRDNAKNTVYLQMNSLKPEDTAVYYCATRRRVLYGYDYWGQGTQVTVSS | high polyreactivity
QVQLVESGGGLVKAGGSLRLSCAASGLTFAINTMGWYRQSRGKERELVAAITGSGGSTYYADSVKGRFTISRDNAKNTVYLQMNSLKPEDSAVYYCAAELLYVQGYAMDYWGQGTQVTVSS | low polyreactivity
QVQLVESGGGLVKAGGSLRLSCAASGRIFGYYAMGLDRQAPGQERELFAAITWSGGRTYYADSVKGRFTISRDNAKNTVYLQMKSLKPEDTAVYYCAAKTLGQQRKFDYWGQGTQVTVSS | high polyreactivity
QVQLVESGGGLVKAGGSLRLSCAASGRTFLRNAMGWYRPAPGKERELVATITRGGSTYYADSVKGRFTISRDNAKNTVYLQMNSLKPEDTAVYYCAKDITGGFRRPDYGYWGQGTQVTVSS | low polyreactivity
QVQLVESGGGLVKAGGSLRLSCAASGRTFSSNAMGWNRQAPGKERELVAAISSSGAGTYYADSVKGRFTISRDNAKNTVYFQMTILKPEDSAVYYCAARANSYHSFTSPYDYWGQGTQVTVSS | low polyreactivity
QVQLVESGGGLVKAGGSLRLSCAASGSIFPDNAMGWYRQAPGKERELVAAISEGSTSTYYADSVKGRFTISRDNAKYTVYLQMNSLKPEDTAVYYCAADYDTGYEYWGQGTQVTVSS | low polyreactivity
QVQLVESGGGLVKAGGSLRLSCAASGSIFPYNAMGWYRQAPGKERELVATISSGGSTNYADSVKGRFTISRDNAKNTVYLQMNSMKPEDTAVYYCAADVSVFYYAPNYWGDIEYGYWGQGTQVTVSS | low polyreactivity
QVQLVESGGGLVKAGGSLRLSCAASGSIIKRYAMGWYRQARGKERELVAAITQSGGRTYYADSVKGRFTISRDNAKNTVYLQMNSLKPEDTAVYYCNAVRWYLYDYWGQGTQVTVSS | high polyreactivity
QVQLVESGGGLVKAGGSLRLSCAASGSIITIYAMGWYRQAPGKERDWVATITGGGGSTYYADSVKGRFTISRDNAKNTVYFKMNSLKPEETAVYYCAADSPGWSYTSRSYDYWGQGTQVTVSS | low polyreactivity
QVQLVESGGGLVKAGGSLRLSCGASGSIFDFYVMGWYRQAPGKERELVGAISSGGSTYYADSVKGRFTISRDNAKHTVYVQMNSLKPADTAVYYCAAYPEYVSGAWYDYWGQGTQVTVSS | low polyreactivity
QVQLVESGGGLVKAGGSLRLSSAASGRILYGNAMGGYRQAPGKERELVAANTRRGGSTYYADSVKGRFTISRDNAKNTVSLQMNSLKPEDTAVYYCAASRYTSYYKDGCYAYYYWGQGTQVTVSS | high polyreactivity

Sequence | polyreactivity (PSR sort gate)
QVQLVESGGGLVKEGGSLRLSCAASGNTIRVNAMGWYRQAPGKERELVAAISFSGGRTYYADSVKGRFTISRDNAKNTVYFQMNSLKPEDTGVYYCAALRRYPRPFIYGYWGQVTQVTVSS | low polyreactivity
QVQLVESGGGLVKEGGSLRLSCAASGRIFGPYAMGWYRQAPGKERELVAVITNSGSTNYADSVKGRFTISRDNAKNSVYLQMNCLKPEDTAVYYCNRFEGGAYGSNFDYWGQGTQVTVSS | high polyreactivity
QVQLVESGGGLVLAGASLRLSCAPSGFIFVRYAMGWYRAAPGKERELVAAISSGGSTKYADSVKGRFTISRDNAKNTVYLQMNSLKPEDTAVYYCAADATPGRGVDYWGQGTQVTVSS | high polyreactivity
QVQLVESGGGLVLAGGSLRLSCAASGFIFDIYAMGCYRQAPGKERELVASITWDDGSTYYADSVKGRFTISRDNAKNTVYLQMNSLNPEDTAVYYCAADFEAGGYSLDYWGHGTQVTVSS | low polyreactivity
QVQLVESGGGLVLAGGSLRLSCAASGFILLYYAMGWYREATGKERELVAAISWTGGRTYYADSVKGRFTISRDNAKNTVYLQMNRLKPEDTAVYYCNTFKFFCRKYGYWGQGTQVTVSS | low polyreactivity
QVQLVESGGGLVLAGGSLRLSCAASGIIFYRNAMGWYRQAPGKERELVAAITSSGGRTYYADSVKGRFTISRDNAKNTVYLQMNSLKPEDTAVYYCAATRMYWKIFYGDGDYWGQGTQVTVST | high polyreactivity
QVQLVESGGGLVLAGGSLRLSCAASGIIFYYYTMGWYRQAPGKERELVAWSGGNTNYADSVKGRFTISRDNAKNTVYLQMNSLIPEDSAVYYCNALAIWSDDWDQWISYADDYWGQGTQVTVSS | low polyreactivity
QVQLVESGGGLVLAGGSLRLSCAASGLIFAVYAMGWYRQAPGKERELVAGISASAASTYYADSVKGRFTISRDNAKNTVYLQMNSLKPEDTAVYYCAAGFYRRGKYDYWGQGTQVTVSS | high polyreactivity
QVQLVESGGGLVLAGGSLRLSCAASGRTFGYYTMGWYRQAPGKERELVAGISSAGSTNYADSVKGRFTLSRDYAKNTVYLQMNSLKPEDTAVYYCAARYQFYRYDSTYYYCGQGTQVTVSS | high polyreactivity
QVQLVESGGGLVLAGGSLRLSCAASGSIFDDNAMGWYIQAPGKERELVAANTVSTDTTYYADSVKGRFTISRDIAKNTVSLLMNSLKPEDTAVYYCAAEGPGYGPTGDFYWYTYYYWGQGTQVTVSS | low polyreactivity
QVQLVESGGGLVLAGGSLRLSCAASGSIFGPYAMGWYRQAPGKERELVAAIRSGGSTNYADSVKGRFTISRDNAKNTVYLQMNSLKPEDNAVYYCAAEYWGYPYDYWGQGTQVTVSS | low polyreactivity
QVQLVESGGGLVLAGGSLRLSCAASGSIFPLYAMGWYRQAPGKERELVAAITGTSSTYADSVKGRFTISRDNAKNTVYLQMNSLKPEDTAVYYCARVGWSWPRREKYNYWGQGTQVTVSS | high polyreactivity
QVQLVESGGGLVLAGGSLRLSCAASGSTFYAHAMGWYRQARGKERELVAAITSGGSTNYADSVKGRFTISRDNAKNTVNLQINSLKPEDTAVYYCATPVNRERHAEDYWGQGTQVTVSS | low polyreactivity
QVQLVESGGGLVLPGGRLRLSCAASGGTFSTYAIASYRQGPGKERELVAAISSRGTSTYYADSVKGRFTISRDNAKNSVYLQMNSLKPEDTAVYYCAAVGVKQFLGGNPFDYWGQGTQVTVSS | high polyreactivity
QVQLVESGGGLVMAGGRLRLSCAASGSTFGYYAMGWYRQAPGKERELVAVITTRVGSTYYADSVKGRFTFSRDNAKNTVYLQMNSLKPEDTAVYYCNASGRTRSYSGSFSKHYYWGQGTQVTVSS | high polyreactivity
QVQLVESGGGLVMAVGSLRLSCAASGSTFAGNAMGWYRQAPGKERELVAAISIVGSTSYADSVKGRFTISRDNAKITFYLQMNSLKPEDTAVYDCAAEWVTSYLNYYHWGQGTQVTVSS | low polyreactivity
QVQLVESGGGLVNAGGSLRLSCAASGITLVVYGMGWYRQAPGKETELVAAMTSGGRTYYADSVTGRFTISRDNAKNTVYLQMNSLKPEDTAVYYCAADRYFRQYGRYYYWGQGTQVTVSS | high polyreactivity
QVQLVESGGGLVNAGGSLRLSCAASGRTFRNYAMGWYRQAPGKERELVAANSSGGSTNYADSVKGRFTISRDNAKNTVYLQMNSLKPEDTAVYFCAARQRAYYGPGFDYWGQGTQVTVSS | low polyreactivity
QVQLVESGGGLVNAGGSLRLSCAASGSIFKYNVMGWYRQAPGKEREMVAAITSRGTSTYYADSVKGRFTISRDNAKNTVYLQMNSLKPEDTAVYYCAADDNYYTFGYWGQGTQVTVSS | high polyreactivity
QVQLVESGGGLVPAGGSLLLSCAASGLTFYVYAMGWYRQAPGKERELVAAISSGGRTYYADSVKGRFTISRDNAKNTVYLQMNSLKPEDTAVYYCAAFRHRNYGYWGQGTQVTVSS | high polyreactivity
QVQLVESGGGLVPAGGSLRLSCAASGGTFYTYVMGWSSQAPGKERELGAAIAGSGNTYYADSVKGRFTISRDKAKKTVYLQMNSLKPEDTAVYYCAKVLRMYPSGSWYGYWGQGTQVTVSS | high polyreactivity
